{
  "source": "patent US20220204587A1",
  "experiment_in_all_cases": "cell-based or functional assay",
  "key": {"TGF-β2": {"molecular_target": "T1, TGF-β2 (UniProt P61812)", "T1 sequence (looked up)": "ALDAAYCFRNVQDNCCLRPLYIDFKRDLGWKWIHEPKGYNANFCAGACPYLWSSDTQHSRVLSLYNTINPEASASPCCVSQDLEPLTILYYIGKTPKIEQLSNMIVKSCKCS"}, "TGF-β1": {"molecular_target": "TGF-β1 (UniProt P01137)", "sequence (P01137 279-390 limits assumed)": "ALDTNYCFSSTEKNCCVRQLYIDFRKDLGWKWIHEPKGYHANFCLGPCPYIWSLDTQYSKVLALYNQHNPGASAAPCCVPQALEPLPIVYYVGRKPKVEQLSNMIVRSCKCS"}, "TGF-β3": {"molecular_target": "TGF-β3 (UniProt P10600)", "sequence (P10600 301-412 limits assumed)": "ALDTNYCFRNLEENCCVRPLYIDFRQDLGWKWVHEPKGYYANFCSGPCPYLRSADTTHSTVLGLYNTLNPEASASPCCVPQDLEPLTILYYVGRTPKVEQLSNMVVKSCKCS"}},
  "data": [
    {"binder": "T22d35-Fc fusion protein (TβRII-ECD doublet fused to the N-terminus of a human IgG2 Fc, hinge …) (Fc fusion) IPPHVQKSVNNDMIVTDNNGAVKFPQLCKFCDVRFSTCDNQKSCMSNCSITSICEKPQEVCVAVWRKNDENITLETVCHDPKLPYHDFILEDAASPKCIMKEKKKPGETFFMCSCSSDECNDNIIFSEEYNTSNPDIPPHVQKSVNNDMIVTDNNGAVKFPQLCKFCDVRFSTCDNQKSCMSNCSITSICEKPQEVCVAVWRKNDENITLETVCHDPKLPYHDFILEDAASPKCIMKEKKKPGETFFMCSCSSDECNDNIIFSEEYNTSNPDERKCCVECPPCPAPPVAGPSVFLFPPKPKDTLMISRTPEVTCVVVDVSHEDPEVQFNWYVDGVEVHNAKTKPREEQFNSTFRVVSVLTVVHQDWLNGKEYKCKVSNKGLPAPIEKTISKTKGQPREPQVYTLPPSREEMTKNQVSLTCLVKGFYPSDISVEWESNGQPENNYKTTPPMLDSDGSFFLYSKLTVDKSRWQQGNVFSCSVMHEALHNHYTQKSLSLSPG", "values": [
      {"measurement": "IC50 (nM), neutralization of TGF-β-induced IL-11 release by A549 cells", "setting": "TGF-β2", "result": 10.6, "unit": "nM"},
      {"measurement": "IC50 (nM), neutralization of TGF-β1-induced IL-11 release by A549 cells", "setting": "TGF-β1", "result": 0.00286, "unit": "nM"},
      {"measurement": "IC50 (nM), neutralization of TGF-β-induced IL-11 release by A549 cells", "setting": "TGF-β1", "result": 0.00335, "unit": "nM"},
      {"measurement": "fold better neutralization potency than T2m-Fc (A549 IL-11 release assay)", "setting": "TGF-β1", "result": 615, "unit": "fold"},
      {"measurement": "fold better neutralization potency than T22d35 (A549 IL-11 release assay)", "setting": "TGF-β1", "result": 970, "unit": "fold"},
      {"measurement": "IC50 (nM), neutralization of TGF-β-induced IL-11 release by A549 cells", "setting": "TGF-β3", "result": 0.00391, "unit": "nM"},
      {"measurement": "fold better neutralization potency than T2m-Fc (A549 IL-11 release assay)", "setting": "TGF-β3", "result": 24, "unit": "fold"},
      {"measurement": "fold better neutralization potency than T22d35 (A549 IL-11 release assay)", "setting": "TGF-β3", "result": 240, "unit": "fold"}
    ]},
    {"binder": "T22d35-Fc-IgG2-v2 (CC) (Fc fusion) IPPHVQKSVNNDMIVTDNNGAVKFPQLCKFCDVRFSTCDNQKSCMSNCSITSICEKPQEVCVAVWRKNDENITLETVCHDPKLPYHDFILEDAASPKCIMKEKKKPGETFFMCSCSSDECNDNIIFSEEYNTSNPDIPPHVQKSVNNDMIVTDNNGAVKFPQLCKFCDVRFSTCDNQKSCMSNCSITSICEKPQEVCVAVWRKNDENITLETVCHDPKLPYHDFILEDAASPKCIMKEKKKPGETFFMCSCSSDECNDNIIFSEEYNTSNPDVECPPCPAPPVAGPSVFLFPPKPKDTLMISRTPEVTCVVVDVSHEDPEVQFNWYVDGVEVHNAKTKPREEQFNSTFRVVSVLTVVHQDWLNGKEYKCKVSNKGLPAPIEKTISKTKGQPREPQVYTLPPSREEMTKNQVSLTCLVKGFYPSDISVEWESNGQPENNYKTTPPMLDSDGSFFLYSKLTVDKSRWQQGNVFSCSVMHEALHNHYTQKSLSLSPG", "values": [
      {"measurement": "IC50 (nM), neutralization of TGF-β1-induced IL-11 release by A549 cells", "setting": "TGF-β1", "result": 0.00278, "unit": "nM"}
    ]}
  ]
}
